Laboratory results reported in patent US20050069530A1.

molecular target: human type IIA sPLA2 (human) (UniProt P14555); test: cell-based or functional assay
Sequence (P14555 21-144): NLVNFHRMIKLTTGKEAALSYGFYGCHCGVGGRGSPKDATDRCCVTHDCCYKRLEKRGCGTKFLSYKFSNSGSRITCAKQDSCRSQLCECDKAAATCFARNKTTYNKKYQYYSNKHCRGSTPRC

Row | Substance | Mean % Inhibition at fixed peptide concentration [5 µM] [%] | IC50 of sPLA2 enzyme inhibition (3H-labelled E. coli membranes as substrate) [µM]
1 | D60, 65E-PIP (59-67) (peptide) | – | 4.2
2 | PIP (59-67) (peptide) | 56.4 | 3.8
3 | PIP (60-67) (peptide) | – | 5.75

Now from value to substance, other results behind:

Row | Mean % Inhibition at fixed peptide concentration [5 µM] [%] | Substance | IC50 of sPLA2 enzyme inhibition (3H-labelled E. coli membranes as substrate) [µM]
4 | 34.2 | PIP (56-67) (peptide) | –
5 | 14.2 | PIP (57-67) (peptide) | –
6 | 59.5 | PIP (58-67) (peptide) | 3.67
